In patent US7642046B2, “Method for monitoring recruitment of proteins to the intracellular domain of a receptor in intact cells” (priority 2001, dated 2010):

Tests used:
p75TNFR = molecular target: T1, p75TNFR (Homo sapiens, UniProt P20333+P25942); test: Recruitment assay with hybrid receptor (CD40 extracellular domain, p75TNFR transmembrane and intracellular domain); format: cell-based; conditions: 293T cells, CD40 as relative standard
T1 construct: cDNA fragments encoding for the transmembrane and cytoplasmic domains of the LTβR, TACI, the p75TNF receptor, CD27; expressed in transfected cells; host or cells: 293T
Protocol: The recruitment of TRAF to CD40 can be quantitatively measured using the assay described in example 1. For that purpose, the assay conditions were adjusted in such a way that TRAF expression was in significant excess over the expression of CD40. This was the case when the TRAF expression plasmid was used at a two to three fold excess over the CD40 expression plasmid. The CD40 bound TRAF concentration was measured as described in example 1. A reference extract containing CD40/TRAF complexes served as a standard in each assay. This standard extract consisted of a large pool extract from cells that had been co-transfected with the plasmids encoding CD40/TRAF1, CD40/TRAF2, CD40/TRAF3, CD40/TRAF5 and CD40/TRAF6. The extracts were tested for the presence of CD40/TRAF complexes and the complex concentrations in each extract were arbitrarily defined as 1000 U/ml. The extracts were frozen in small aliquots and kept at −80° C. until further use. […] The necessary normalization for sample-to-sample variations in the CD40 expression was calculated with the following formula: […]
Recruitment of various TRAFs to receptors different to CD40, was tested by the recruitment assay described in example 1 by transforming cells with expression plasmids encoding hybrids receptors comprising the extracellular domain of CD40 and transmembrane and intracellular domain of anyone of the following receptors: BCMA (Madry et al. 1998 and Hatzoglou et al. 2000) the LTβR-receptor (Mosialos et al. 1995, Crowe et al. 1994, Nakano et al. 1996), TACI (von Bulow et al. 1997, Xia et al. 2000) the p75TNFR (Rothe et al. 1994) and the CD27 (Gravestein et al. 1998, Akiba et al. 1998) (for details of constructs see example 7). Measurement of TRAF recruitment to the signalling domains of BCMA the LTβR-receptor TACI the p75TNFR or the CD27 was carried out by co-transfecting 293T cells with a plasmid encoding anyone of the above hybrid receptors together with a plasmid encoding TRAF and measurement of the TRAF/Receptor complex using the ELISA sandwich described in example 1 and the quantitation as described in example 3. […]

CD40 = molecular target: T2, CD40 (Homo sapiens, UniProt P25942); test: TRAF binding to CD40 in cell lysate: separately expressed extracts mixed 1:1, ELISA; conditions: extracts mixed 1:1, over night at 4° C.
T2 construct: expressed in transfected cells; host or cells: HEK 293T
From the text: To measure TRAF recruitment to CD40 many studies relied on experimental systems that probe TRAF binding to synthetic peptides or soluble fragments of the CD40 signaling domain (Rothe et al. 1994, Hu et al. 1994, Cheng et al. 1995, Mosialos et al. 1995, Ishida et al. it 1996, Ishida et al. b 1996, Boucher et al. 1997, Pullen et al. 1998 and Pullen et al. 1999). […] Therefore, recruitment of TRAF1 and TRAF2 by CD40 intact cells versus cell lysate was compared. In the experiment, CD40 and TRAF1 or TRAF2 were co-expressed or expressed separately in 293T cells (constructs described in example 7 below). Plasmid concentrations and ratios were identical to the experiment described in example 1. After 27 hours, the cells were detergent lysed as in example 1. The extracts from 293T cells expressing only CD40 or the TRAF of interest were mixed at a 1:1 ratio and incubated over night at 4° C. Extracts expressing both CD40 and the TRAF of interest were kept under identical conditions. Then the samples were incubated on microtiter plates coated with a mAb against the extra-cellular domain of CD40 as described in example 1. After a washing step, CD40 bound TRAFs were detected with anti TRAF antibodies (example 1). Quantitation of TRAF recruited to CD40 was carried out as described in the example 3 below.

T1 sequence (P25942+P20333 fused): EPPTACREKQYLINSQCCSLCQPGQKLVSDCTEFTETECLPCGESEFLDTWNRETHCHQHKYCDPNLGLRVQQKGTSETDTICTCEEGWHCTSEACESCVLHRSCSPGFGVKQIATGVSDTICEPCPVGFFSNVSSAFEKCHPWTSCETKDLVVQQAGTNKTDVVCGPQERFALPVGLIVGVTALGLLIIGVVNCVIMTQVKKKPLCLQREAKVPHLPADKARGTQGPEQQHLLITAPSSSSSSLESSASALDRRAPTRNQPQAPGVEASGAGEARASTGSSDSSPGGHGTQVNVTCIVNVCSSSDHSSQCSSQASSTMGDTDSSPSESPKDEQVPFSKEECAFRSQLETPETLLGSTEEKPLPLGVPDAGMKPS
T2 sequence (P25942 21-277): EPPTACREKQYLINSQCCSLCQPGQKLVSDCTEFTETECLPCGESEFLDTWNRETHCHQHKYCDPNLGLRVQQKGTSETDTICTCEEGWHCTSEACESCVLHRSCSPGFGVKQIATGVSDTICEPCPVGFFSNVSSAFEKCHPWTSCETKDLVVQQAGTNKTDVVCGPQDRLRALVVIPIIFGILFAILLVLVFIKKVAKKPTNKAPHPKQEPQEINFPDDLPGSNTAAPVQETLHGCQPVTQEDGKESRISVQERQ

Row | recruitment to p75TNFR, folds higher than recruitment to CD40 (p75TNFR) | binding to CD40 in cell lysate (CD40) | Molecule
1 | 25 fold | barely detectable | TRAF1: TNF receptor associated factor 1, adaptor protein overexpressed in 293T cells from pcDNA3 (protein, UniProt Q13077 1-416, looked up, full-length, TNF receptor associated factor 1, adaptor protein overexpressed in 293T cells from pcDNA3) MASSSGSSPRPAPDENEFPFGCPPTVCQDPKEPRALCCAGCLSENPRNGEDQICPKCRGEDLQSISPGSRLRTQEKAHPEVAEAGIGCPFAGVGCSFKGSPQSVQEHEVTSQTSHLNLLLGFMKQWKARLGCGLESGPMALEQNLSDLQLQAAVEVAGDLEVDCYRAPCSESQEELALQHFMKEKLLAELEGKLRVFENIVAVLNKEVEASHLALATSIHQSQLDRERILSLEQRVVELQQTLAQKDQALGKLEQSLRLMEEASFDGTFLWKITNVTRRCHESACGRTVSLFSPAFYTAKYGYKLCLRLYLNGDGTGKRTHLSLFIVIMRGEYDALLPWPFRNKVTFMLLDQNNREHAIDAFRPDLSSASFQRPQSETNVASGCPLFFPLSKLQSPKHAYVKDDTMFLKCIVETST
2 | about 60 fold | barely detectable | TRAF2: TNF receptor associated factor 2, human adaptor protein expressed from pcDNA3 (protein, UniProt Q12933 1-501, looked up, full-length, TNF receptor associated factor 2, human adaptor protein expressed from pcDNA3) MAAASVTPPGSLELLQPGFSKTLLGTKLEAKYLCSACRNVLRRPFQAQCGHRYCSFCLASILSSGPQNCAACVHEGIYEEGISILESSSAFPDNAARREVESLPAVCPSDGCTWKGTLKEYESCHEGRCPLMLTECPACKGLVRLGEKERHLEHECPERSLSCRHCRAPCCGADVKAHHEVCPKFPLTCDGCGKKKIPREKFQDHVKTCGKCRVPCRFHAIGCLETVEGEKQQEHEVQWLREHLAMLLSSVLEAKPLLGDQSHAGSELLQRCESLEKKTATFENIVCVLNREVERVAMTAEACSRQHRLDQDKIEALSSKVQQLERSIGLKDLAMADLEQKVLEMEASTYDGVFIWKISDFARKRQEAVAGRIPAIFSPAFYTSRYGYKMCLRIYLNGDGTGRGTHLSLFFVVMKGPNDALLRWPFNQKVTLMLLDQNNREHVIDAFRPDVTSSSFQRPVNDMNIASGCPLFCPVSKMEAKNSYVRDDAIFIKAIVDLTGL
